B1: P116 (30–957), ectodomain of P116 (MPN_213) from Mycoplasma pneumoniae (domain or fragment)
chain: NKTHQVEHESEQSDFQDIRFGLNSVKLPKAQPAAATRITVENGTDKLVNYKSSPQQLFLAKNALKDKLQGEFDKFLSDAKAFPALTADLQEWVDQQLFNPNQSFFDLSAPRSNFTLSSDKKASLDFIFRFTNFTESVQLLKLPEGVSVVVDSKQSFDYYVNASAQKLLVLPLSLPDYTLGLNYMFDHITLNGKVVNKFSFNPFKTNLNLAFSNVYNGVDVFEAQKNLVGKGKYLNTHVKAEDVKKDVNANIKNQFDIAKIIAELMGKALKEFGNQQEGQPLSFLKVMDKVKEDFEKLFNLVRPGLGKFVKDLIQSSSQAENKITVYKLIFDNKKTILNLLKELSIPELNSSLGLVDVLFDGITDSDGLYERLQSFKDLIVPAVKTNEKTAALSPLIEELLTQKDTYVFDLIQKHKGILTNLLKNFLADFQKSTPFMADQVAIFTELFDNEGAFDLFGEADFVDKIAELFLTKRTVKNGEKIETKDSLLVTSLKSLLGEKVAALGDLLDSYIFKNELLNRSVEVAKAEAKDTKGATDYKKEQAKALKKLFKHIGENTLSKTNLDKITLKEVKNTENVELEETETTLKVKKLDVEYKVELGNFEIKNGLIKAMLEFLPDTKDLETTLDKLLFKGESYKAMKDKYIKEGFPGYGWAKGVVPGAFESIENTFKSAIDKTKSIRDLFGDMLFGNDLSSVKETDSFITLGGSFDIKYGGENLNVLPAYYSLINSEIGYQIIGVDTTIDATKVKVELKNKEYKGKSPAINGQVKLSQSFFNVWTNMFDSITKQIFQKKYEFKDNIQVFARNEDNTSRLELDISDPEQRVIPFAFVDGFGIQLKAVDKNITKEAGNTEPKSPVIQLYEALNKEKDQKQQSKQSPKQLDTKTQLGYLLKLGDNWSKDDYKSLIDDTIINNNYLEASFNSKITVDRLG
notes: source: E. coli B834 (DE3), purified (HisTrap, Superdex 200)

Tests used:
[1] = target: P116 W681A (M. pneumoniae) (UniProt P75556); test: SEC-MALS; Superose 6 10/300 GL column, DAWN HELEOS II MALS detector and Optilab T-REX refractive index detector
[2] = target: the molecule itself; test: as above

Molecule | rate of dimers to monomers (dimers:monomers) [1] | stoichiometry N [2]
P116 W681A (from UniProt P75556 30-957) (domain or fragment) | 0.25 | 
B1 |  | 2
